The record followed here is patent publication US20200045945A1.

Test [1] deals with CD163 on macrophages of heterozygous pigs 627 and 634 (both the full-length and the ΔSRCR5 protein). Kind of test: cell-based or functional assay.
Test [2] deals with wild type (full-length, unmodified) porcine CD163 (pig) (UniProt Q2VL90). Kind of test: cell-based or functional assay.
Test [3] concerns the target ΔSRCR5 CD163 (porcine CD163 with the SRCR5 domain deleted) (pig) (UniProt Q2VL90). Kind of test: cell-based or functional assay.
The target of test [4] is CD163 on macrophages of all six pigs 628, 633, 627, 634, 629, 630 (wild type, heterozygous and ΔSRCR5). Kind of test: cell-based or functional assay.
Test [5] has the same target. Kind of test: flow cytometry on PAMs, isotype control staining of the six pigs. For orientation: A flow cytometer gives signals particle by particle.
The target is the same in test [6]. Kind of test: flow cytometry on PMMs, isotype control staining of the six pigs.
The target in test [7] is ΔSRCR5 CD163 (porcine CD163 with the SRCR5 domain deleted) (pig) (UniProt Q2VL90). Briefly: flow cytometry on PAMs of pig 629 (ΔSRCR5).
Test [8] has the same target. Kind of test: flow cytometry on PAMs of pig 630 (ΔSRCR5).
Test [9] shares this target. Kind of test: flow cytometry on PMMs of pig 629 (ΔSRCR5).
For test [10] the target is unchanged. Briefly: flow cytometry on PMMs of pig 630 (ΔSRCR5).
In test [11] the target is wild type (full-length, unmodified) porcine CD163 (pig) (UniProt Q2VL90). Kind of test: flow cytometry on PAMs of pig 628 (wild type).
The target is the same in test [12]. Kind of test: flow cytometry on PAMs of pig 633 (wild type).
Test [13] shares this target. Briefly: flow cytometry on PMMs of pig 628 (wild type).
The target is the same in test [14]. Kind of test: flow cytometry on PMMs of pig 633 (wild type).
Test [15] concerns the target CD163 on macrophages of heterozygous pigs 627 and 634 (both the full-length and the ΔSRCR5 protein). Kind of test: flow cytometry on PAMs of pig 627 (heterozygous).
The target is the same in test [16]. Briefly: flow cytometry on PAMs of pig 634 (heterozygous).
Test [17] has the same target. Briefly: flow cytometry on PMMs of pig 627 (heterozygous).
Test [18] shares this target. Kind of test: flow cytometry on PMMs of pig 634 (heterozygous).

“And” between values parts separate entries of the source, which are not always exact repeats. Equal values may be shown once.

In [1], “Alexa Fluor 488-labelled hemoglobin-haptoglobin complex (HbAF488-Hp) (from UniProt P69905 2-142; P68871 2-147; P00738 19-406) (ligand)” displayed a medians of green fluorescence, HbAF488-Hp uptake into PMMs by FACS, animal 627 (heterozygous) of 329 and a medians of green fluorescence, HbAF488-Hp uptake into PMMs by FACS, animal 634 (heterozygous) of 366. In [2], this substance came in with a medians of green fluorescence, HbAF488-Hp uptake into PMMs by FACS, animal 628 (wild type) of 329 and a medians of green fluorescence, HbAF488-Hp uptake into PMMs by FACS, animal 633 (wild type) of 305. In test [3], this substance gave a medians of green fluorescence, HbAF488-Hp uptake into PMMs by FACS, animal 629 (ΔSRCR5) of 340 and a medians of green fluorescence, HbAF488-Hp uptake into PMMs by FACS, animal 630 (ΔSRCR5) of 405.

Regarding “hemoglobin-haptoglobin complex (Hb-Hp) (from UniProt P69905 2-142; P68871 2-147; P00738 19-406) (ligand)”, the HO-1 mRNA upregulation in PMMs after 24 h with Hb-Hp, RT-qPCR in [4] is 2 fold and 6 fold.

In the case of “mouse IgG1 or IgG2b negative control (AbD Serotec, MCA928PE, MCA691F, or Sigma, F6397) (antibody)”, the results for the median of fluorescence intensity in [5] and in [6] were 2.13 to 3.84 and 1.88 to 3.79, respectively.

For “mouse anti-pig CD163 antibody, clone 2A10/11 (AbD Serotec, MCA2311PE)”, the median of CD163 fluorescence intensity in test [7] amounted to 17.9; in test [8] it was 26.7; in test [9], 18.8; in test [10], 17.2; in test [11], 35.9; in test [12], 22.7. Besides, the median of CD163 fluorescence intensity is 23.3 in test [13]; 16.7 in [14]; 26.4 in [15]; 24.4 in test [16]; 18.3 in test [17]; 16.5 in [18].
